Experimental data reported in patent US12312641B2, “Sensitivity marker for antibody-drug conjugate” (priority 2018, dated 2025).

Legend:
[1] = system: patient-derived xenograft (PDX) model; assay: Anti-tumor effect (TGI) in patient-derived xenograft models, 10 to 15 days after administration; assay type: in vivo, nu/nu mice; settings: for Proportion of PDX models showing TGI of 75% or more: TGI at 10 to 15 days
Protocol: (§1) Mice: Female nu/nu mice (Envigo) aged 5-8 weeks were acclimatized under SPF conditions for 3 days or more prior to experimental use. Mice were fed with sterile solid feed (Teklad2919, Envigo) and given reverse osmosis membrane-treated water (containing 2 ppm chlorine).
(§2) Measurements and Calculation formula: long and short diameters of tumors were measured twice a week with an electronic digital caliper (CD-6PMX, Mitutoyo Corp.) and tumor volume (mm^3) was calculated using the following calculation formula: Tumor volume (mm^3)=0.52×Long diameter (mm)×[Short diameter (mm)]^2
(§3) Tumor fragments from each cancer patient were subcutaneously implanted into mice and passaged. The obtained tumors were used to subcutaneously implant tumor fragments, which were cut to approximately 5×5×5 mm^3, into the left abdomen of female nu/nu mice, thereby each patient-derived xenograft (PDX) model was created. Mice were randomly grouped when the mean transplanted tumor volume reached 150 to 300 mm^3 (Day 0). On the same day as grouping, the antibody-drug conjugate (1) was administered into the tail vein at a dose of 10 mg/kg. A formulation buffer was similarly administered at a volume of 10 mL/kg as a negative control.
Data on the amount of gene expression in each PDX model used in Example 4 were obtained by the next-generation RNA sequencing method using RNA extracted from formalin-fixed paraffin-embedded specimens of each tumor. After the obtained data were normalized to a FPKM value, 1 was added to FPKM, and the sum was transformed to a logarithmic (log2) to obtain a log2[FPKM+1] value (Table 6). The log2[FPKM+1] value was used to analyze the relationship between the anti-tumor activity of antibody-drug conjugate (1) in each PDX model (Table 5) and the amount of expression of the hTROP2 gene and the SLFN11 gene.

[2] = system: patient-derived xenograft (PDX) model; assay: Anti-tumor effect (TGI) in patient-derived xenograft models, 21 days after administration; assay type: in vivo, nu/nu mice; settings: for TGI (%): 10 mg/kg tail vein, 21 days after administration; for Proportion of PDX models showing TGI of 75% or more: TGI at 21 days
Protocol: as §1, §2
as §3, with “abdomen of the female nu/nu” for “abdomen of female nu/nu”, “negative control. Tumor growth inhibition rates (TGI (%)) were calculated according to the following calculation formula using each tumor volume 21 days after administration (Table 1). Tumor growth inhibition rate (%)=100×(1−Tf/mean Cf) • Tf: tumor volume 21 days after administration of antibody-drug conjugate (1) • mean Cf: arithmetic mean tumor volume 21 days after administration in negative control group mice” for “negative control.”
Data on the amount of gene expression in each PDX model used in Example 2 were obtained and normalized at Champions Oncology, Inc., thereby a RPKM value was obtained. To the RPKM value, 1 was added, and the sum was transformed to a logarithmic (log2) to obtain a log2[RPKM+1] value (Table 2). The log2[RPKM+1] value was used to analyze the relationship between the anti-tumor activity of antibody-drug conjugate (1) in each PDX model (Table 1) and the amount of expression of the hTROP2 gene and the SLFN11 gene. […] When TGI was 80% or more, the prediction rate decreased to an order of 60% only when the log2[RPKM+1] value of the hTROP2 gene exceeded 7.5 and the log2[RPKM+1] value of the SLFN11 gene exceeded 1.0 and was less than or equal to 2.

B1: antibody-drug conjugate (1): humanized anti-hTROP2 antibody (SEQ ID NO: 1 residues 20-470, SEQ ID NO: 2 residues 21-234) conjugated to the exatecan-derivative drug-linker via a thioether bond (conjugate, chains of the INN, looked up)
VH: QVQLVQSGAEVKKPGASVKVSCKASGYTFTTAGMQWVRQAPGQGLEWMGWINTHSGVPKYAEDFKGRVTISADTSTSTAYLQLSSLKSEDTAVYYCARSGFGSSYWYFDVWGQGTLVTVSS
VL: DIQMTQSPSSLSASVGDRVTITCKASQDVSTAVAWYQQKPGKAPKLLIYSASYRYTGVPSRFSGSGSGTDFTLTISSLQPEDFAVYYCQQHYITPLTFGQGTKLEIK
modifications: exatecan-derivative drug-linker
Question: For B1, which “Proportion of PDX models showing TGI of 75% or more” value ([1]; log2[FPKM+1]: hTROP2 >7.0, SLFN11 >2, 7 models) is on record?
Answer: 86%

Question: And the “Proportion of PDX models showing TGI of 75% or more” value ([1]; log2[FPKM+1]: hTROP2 >7.0, SLFN11 >3, 4 models)?
Answer: 100%

Question: And the “Proportion of PDX models showing TGI of 75% or more” value ([1]; log2[FPKM+1]: hTROP2 >7.0, SLFN11 All models, 16 models)?
Answer: 50%

Question: What about the “Proportion of PDX models showing TGI of 75% or more” value ([1]; log2[FPKM+1]: hTROP2 All models, SLFN11 >1, 24 models) of the same molecule?
Answer: 54%

Question: What about the “Proportion of PDX models showing TGI of 75% or more” value ([1]; log2[FPKM+1]: hTROP2 All models, SLFN11 >2, 18 models) of the same molecule?
Answer: 56%

Question: What about the “Proportion of PDX models showing TGI of 75% or more” value ([1]; log2[FPKM+1]: hTROP2 All models, SLFN11 >3, 12 models) of the same molecule?
Answer: 58%

Question: And the “Proportion of PDX models showing TGI of 75% or more” value ([1]; log2[FPKM+1]: hTROP2 All models, SLFN11 All models, 35 models)?
Answer: 43%

Question: What about the “Proportion of animal models showing TGI of 75% or more” value ([1]; log2[FPKM+1]: hTROP2 exceeds 7.0 and SLFN11 exceeds 3.0) of the same molecule?
Answer: 100%

Question: And the “TGI (%)” value ([2]; PDX model #1, Breast)?
Answer: 98.1%

Question: What about the “TGI (%)” value ([2]; PDX model #2, Lung) of the same molecule?
Answer: 77.3%

Question: What about the “TGI (%)” value ([2]; PDX model #3, Cholangiocarcinoma) of the same molecule?
Answer: 48.0%

Question: What about the “TGI (%)” value ([2]; PDX model #4, Pancreatic) of the same molecule?
Answer: 48.5%

Question: What about the “TGI (%)” value ([2]; PDX model #5, Colorectal) of the same molecule?
Answer: 65.0%

Question: What about the “TGI (%)” value ([2]; PDX model #6, Breast) of the same molecule?
Answer: 95.5%

Question: What about the “TGI (%)” value ([2]; PDX model #7, Breast) of the same molecule?
Answer: 94.7%

Question: And the “TGI (%)” value ([2]; PDX model #8, Head and neck)?
Answer: 55.6%

Question: What about the “TGI (%)” value ([2]; PDX model #9, Head and neck) of the same molecule?
Answer: 99.1%

Question: And the “TGI (%)” value ([2]; PDX model #10, Lung)?
Answer: 97.7%

Question: What about the “TGI (%)” value ([2]; PDX model #11, Lung) of the same molecule?
Answer: 95.4%

Question: And the “TGI (%)” value ([2]; PDX model #12, Breast)?
Answer: 95.8%

Question: And the “TGI (%)” value ([2]; PDX model #13, Lung)?
Answer: 70.0%

Question: What about the “TGI (%)” value ([2]; PDX model #14, Breast) of the same molecule?
Answer: 90.1%

Question: And the “TGI (%)” value ([2]; PDX model #15, Cholangiocarcinoma)?
Answer: 61.2%

Question: What about the “TGI (%)” value ([2]; PDX model #16, Colorectal) of the same molecule?
Answer: 52.7%

Question: And the “TGI (%)” value ([2]; PDX model #17, Breast)?
Answer: 62.6%

Question: And the “TGI (%)” value ([2]; PDX model #18, Lung)?
Answer: 18.4%

Question: And the “TGI (%)” value ([2]; PDX model #19, Lung)?
Answer: 50.3%

Question: And the “Proportion of PDX models showing TGI of 75% or more” value ([2]; log2[RPKM+1]: hTROP2 >6.5, SLFN11 >1, 10 models)?
Answer: 60%

Question: What about the “Proportion of PDX models showing TGI of 75% or more” value ([2]; log2[RPKM+1]: hTROP2 >6.5, SLFN11 >2, 6 models) of the same molecule?
Answer: 83%

Question: And the “Proportion of PDX models showing TGI of 75% or more” value ([2]; log2[RPKM+1]: hTROP2 >6.5, SLFN11 >3, 3 models)?
Answer: 100%

Question: What about the “Proportion of PDX models showing TGI of 75% or more” value ([2]; log2[RPKM+1]: hTROP2 >6.5, SLFN11 All models, 15 models) of the same molecule?
Answer: 47%

Question: What about the “Proportion of PDX models showing TGI of 75% or more” value ([2]; log2[RPKM+1]: hTROP2 >7.0, SLFN11 >1, 9 models) of the same molecule?
Answer: 67%

Question: What about the “Proportion of PDX models showing TGI of 75% or more” value ([2]; log2[RPKM+1]: hTROP2 >7.0, SLFN11 >2, 6 models) of the same molecule?
Answer: 83%

Question: What about the “Proportion of PDX models showing TGI of 75% or more” value ([2]; log2[RPKM+1]: hTROP2 >7.0, SLFN11 >3, 3 models) of the same molecule?
Answer: 100%

Question: And the “Proportion of PDX models showing TGI of 75% or more” value ([2]; log2[RPKM+1]: hTROP2 >7.0, SLFN11 All models, 11 models)?
Answer: 55%

Question: What about the “Proportion of PDX models showing TGI of 75% or more” value ([2]; log2[RPKM+1]: hTROP2 >7.5, SLFN11 >1, 6 models) of the same molecule?
Answer: 83%

Question: What about the “Proportion of PDX models showing TGI of 75% or more” value ([2]; log2[RPKM+1]: hTROP2 >7.5, SLFN11 >2, 4 models) of the same molecule?
Answer: 100%

Question: What about the “Proportion of PDX models showing TGI of 75% or more” value ([2]; log2[RPKM+1]: hTROP2 >7.5, SLFN11 >3, 2 models) of the same molecule?
Answer: 100%

Question: And the “Proportion of PDX models showing TGI of 75% or more” value ([2]; log2[RPKM+1]: hTROP2 >7.5, SLFN11 All models, 8 models)?
Answer: 63%

Question: What about the “Proportion of PDX models showing TGI of 75% or more” value ([2]; log2[RPKM+1]: hTROP2 >8.0, SLFN11 >1, 5 models) of the same molecule?
Answer: 80%

Question: And the “Proportion of PDX models showing TGI of 75% or more” value ([2]; log2[RPKM+1]: hTROP2 >8.0, SLFN11 >2, 3 models)?
Answer: 100%

Question: What about the “Proportion of PDX models showing TGI of 75% or more” value ([2]; log2[RPKM+1]: hTROP2 >8.0, SLFN11 >3, 2 models) of the same molecule?
Answer: 100%

Question: And the “Proportion of PDX models showing TGI of 75% or more” value ([2]; log2[RPKM+1]: hTROP2 >8.0, SLFN11 All models, 7 models)?
Answer: 57%

Question: What about the “Proportion of PDX models showing TGI of 75% or more” value ([2]; log2[RPKM+1]: hTROP2 All models, SLFN11 >1, 13 models) of the same molecule?
Answer: 54%

Question: What about the “Proportion of PDX models showing TGI of 75% or more” value ([2]; log2[RPKM+1]: hTROP2 All models, SLFN11 >2, 9 models) of the same molecule?
Answer: 67%

Question: What about the “Proportion of PDX models showing TGI of 75% or more” value ([2]; log2[RPKM+1]: hTROP2 All models, SLFN11 >3, 5 models) of the same molecule?
Answer: 80%

Question: What about the “Proportion of PDX models showing TGI of 75% or more” value ([2]; log2[RPKM+1]: hTROP2 All models, SLFN11 All models, 19 models) of the same molecule?
Answer: 47%

Question: What about the “Prediction rate when TGI was 80% or more” value ([2]; log2[RPKM+1]: hTROP2 exceeded 7.5 and SLFN11 exceeded 1.0 and less than or equal to 2) of the same molecule?
Answer: ~60%

Question: What about the “Proportion of animal models showing TGI of 75% or more” value ([2]; log2[RPKM+1]: hTROP2 exceeds 7.5 and SLFN11 exceeds 2.0, or hTROP2 exceeds 6.5 and SLFN11 exceeds 3.0) of the same molecule?
Answer: 100%
